± gives the uncertainty stated by the source.
test: protein stability index of a GFP-peptide fusion (yeast GPS) (PSI 1-4); higher = more stable; sorted into four equal gates, so the index is relative within each strain; conditions: ubr1∆
In short: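 The protein stability index of a peptide was calculated by multiplying its read frequency in each gate by that gate's number and adding the products. The peptides were tiled 17-residue stretches of yeast proteins, fused downstream of GFP on a Cherry-expressing plasmid and carried in yeast as a pooled library. Mid-log cultures in leucine-free medium were sorted into four equal gates by GFP/Cherry ratio, and each gate's plasmids were PCR-amplified and Illumina-sequenced.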

Sequence | protein stability index
NVFNDTPRGNHWMGSSV [YMR129W/POM152] | 3.12 ± 0.081
NVGTNTYRLGEWSKISV [POP1] | 3.17 ± 0.12
NVKELWTEKKGKNVINR [SMD2] | 3.6 ± 0.11
NVLKAPFIKSESKPFSS [SIR4] | 3.03 ± 0.059
NVMLNIYPRTVIDIEIH [SKI6] | 1.76 ± 0.034
NVNLDDYPDDSGWTPFH [NAS6] | 2.96 ± 0.066
NVRSSVLQKVIEWAEHH [SKP1] | 2.03 ± 0.099
NVRVGQAVETVGQAGRP [RPN1] | 3.02 ± 0.1
NVSDEQLSNWQKIRNSE [ITC1] | 2.98 ± 0.087
NVSENQPWQMDTNNEAD [SNF12] | 3.25 ± 0.04
NVTIAQGGVLPNIHQNL [HTA1] | 1.46 ± 0.034
NVTTILDEIFSGCDSTK [ECM29] | 2.63 ± 0.042
NVVEADLKRFVDESLLS [QCR2] | 3.46 ± 0.051
NWRKQKGIDSVVRRRFR [RPL32] | 2.28 ± 0.18
NYGIVELDPECQLQNSD [RRP43] | 3.02 ± 0.078
NYQYKIQELRKLLKSLL [MED7] | 1.81 ± 0.072
PAAANLDALVDCENFFN [YJL039C/NUP192] | 2.7 ± 0.093
PADRPQGRRNSRNFSTR [SIR4] | 3.15 ± 0.074
PAKIVNFEKPKNSSQLL [RPN5] | 3.2 ± 0.06
PAKPALSFGTATSDNKT [YJL041W/NSP1] | 3.08 ± 0.048
PAKVAEEGINKFKKEKF [SRP54] | 3.23 ± 0.057
PALESSPVTGDNSPSED [SNF2] | 3.33 ± 0.041
PANVLLVQSLNDMVLEL [NNF1] | 2.94 ± 0.057
PASKHDKEVVYFDEWTI [RPC34] | 3.12 ± 0.082
PATTSQMAKDVTTFLNW [CYT1] | 3.31 ± 0.27
PCLRKYEEFRDVAIENN [RRP43] | 2.94 ± 0.047

Sequence | protein stability index
PDDDKIVPLTEGDIQVL [RPT1] | 3.01 ± 0.052
PDDMVEINSVGNPGLPQ [ITC1] | 3.09 ± 0.06
PDEAIEKVFNAYPAARE [FAS1] | 3.1 ± 0.093
PDISRAVINIRDDGKRE [RPO31] | 2.77 ± 0.063
PDKLLGVILMFAAILVL [COB] | 1.59 ± 0.11
PDSNHLSSETGIKLALD [SRB4] | 3.37 ± 0.066
PDVLLSRVINVVRAASS [RRP6] | 2.17 ± 0.13
PEDPYFNTLVRIMSTRC [DIS3] | 1.92 ± 0.049
PEGYKAKSISTSAKEPS [RPO31] | 1.86 ± 0.09
PELNVSLNLTDDVISNA [MCD1] | 3.15 ± 0.032
PEVSMIRDIREKELKIF [RPB2] | 2.69 ± 0.13
PFKRKMLLVDIIPSRMG [REC8] | 2.15 ± 0.059
PFNQGSKQDVEALIEFI [FAS2] | 3.08 ± 0.061
PFSLTYVRTEETDGKHG [YMR129W/POM152] | 3.19 ± 0.069
PGEFVTAIAHSIREQVH [SNF5] | 2.29 ± 0.047
PGGILRAQHVKKLATRP [RPL34A] | 3.02 ± 0.14
PGRKYTTLGKLSTSVGW [RPL16A] | 2.47 ± 0.091
PGSVEEVDKSKLITTYI [YDL116W/NUP84] | 3.42 ± 0.18
PHATATEKEPVPAVVDD [SNF6] | 3.18 ± 0.087
PHIIAVACLFITISIHG [SSN8] | 1.47 ± 0.062
PHNSKSLGFLQQSNKLH [RPN3] | 3.26 ± 0.055
PIKADKDYSQILKEEFP [RPN5] | 2.69 ± 0.062
PIKNRTSKSFSKLLYDD [SIN4] | 2.64 ± 0.048
PIPFEFQAVIQKSINHP [SNF2] | 2.86 ± 0.057
PIPSKPTLFDLAFNYIT [SRP68] | 2.02 ± 0.046
PIPVQGEIEIKPNEEEE [RPN13] | 2.67 ± 0.1

Sequence | protein stability index
PKCHSRENVFFQSQQRR [RPB9] | 2.65 ± 0.054
PKDFSPNFTGIDKLMLS [SSN2] | 1.26 ± 0.11
PKKALKVKAGVRSANED [RRP43] | 2.41 ± 0.051
PKKHLSETADETLENNI [RPN11] | 2.84 ± 0.088
PKMQWSLQDNSAAINNE [RPN4] | 3.15 ± 0.041
PKNKLVPTLEAKRDYII [FAS1] | 2.15 ± 0.11
PKSTLDNWRREFLKWTP [ISW2] | 2.76 ± 0.09
PKVKEIKTVVLVPQLGH [PRP8] | 2.31 ± 0.048
PKVPVSAAATPSLNKTI [GAL11] | 2.63 ± 0.036
PKVTPQMMQQAQQKLKQ [SRP54] | 1.48 ± 0.24
PLDEIPVDVDFNLDLDD [REC8] | 2.25 ± 0.066
PLDRLENVLAIGIAGAH [SKI6] | 1.85 ± 0.12
PLDSKDENFASVSPAGP [SNF2] | 2.99 ± 0.06
PLFIVEDDESLGHKELK [RPB2] | 1.8 ± 0.097
PLHSGKTSLMDLLVIDS [SNU114] | 2.47 ± 0.048
PLITRHCYPRQLCQITC [RRP46] | 2.11 ± 0.044
PLIWQLLQSSIINKLIH [POP3] | 1.84 ± 0.028
PLKLSGEGPFTVKFKHM [YMR129W/POM152] | 2.72 ± 0.076
PLNDGFVDLVEHFLKLN [YML103C/NUP188] | 2.53 ± 0.13
PLPLDLNVQVWHIEETG [ITC1] | 2.17 ± 0.071
PLRGALATYGLTIDDLG [FAS2] | 2.72 ± 0.079
PLVLLQQIPLLCYMAPM [POP3] | 1.92 ± 0.054
PNCPRPNMSICIFGDAF [RPL1A] | 1.53 ± 0.04
PNIADYITAKNNVVINF [PRP8] | 1.26 ± 0.067
PNIFPNLTYYNEKLECI [ITC1] | 2.68 ± 0.05
PNMSICIFGDAFDVDRA [RPL1A] | 2.4 ± 0.089

Sequence | protein stability index
PNSERETDHANTENNDP [IRR1] | 2.88 ± 0.044
PNSERSGTPTLKKNIEP [YOR098C/NUP1] | 3.07 ± 0.082
PNSNKTHTEQNNPPKPQ [SNF2] | 3.06 ± 0.052
PPGLDALVKPETQFKLS [CDC53] | 2.99 ± 0.046
PPLLVYKWTQGINNLSE [PRP8] | 3.25 ± 0.098
PPPPPPPGYEIEELDNP [PRP8] | 3.03 ± 0.033
PPPYVKFFTQSNLEKLP [MED7] | 2.49 ± 0.027
PPTTSNLIIFLYKFNGW [YML103C/NUP188] | 2.53 ± 0.051
PQALRVLRLKPGRKYTT [RPL16A] | 3.21 ± 0.05
PQDLTFNAGSNPPSYQS [RPB7] | 2.86 ± 0.096
PQIVVPDAQNELPKFIL [DIS3] | 2.98 ± 0.077
PQLISDKFSPEDGLGPL [ARP7] | 2.61 ± 0.055
PQQPMVKTKTIELIDYD [RET1] | 2.97 ± 0.058
PQWKRHLEEYGYLIQVL [YCS4] | 2.5 ± 0.047
PRDVIKGKDFEITAKEV [FAS1] | 3.36 ± 0.083
PRFLNKQERSKQERLKE [PRP28] | 2.13 ± 0.089
PRLGSIDRNLKCQTCQE [RPO21] | 2.67 ± 0.069
PRLSHLSLTAVPSFLRP [GRR1] | 2.18 ± 0.045
PRMASVFENYVKKTGEN [CDC53] | 3.47 ± 0.049
PRRDGERKRKSVRGAIV [RPS6A] | 3.05 ± 0.087
PRTLIGHRATVTDIAII [RPN14] | 3.18 ± 0.094
PSDMVIPDHLAELIPEL [SNF12] | 2.79 ± 0.042
PSEDVAAPKKTRKAVRP [RPL6B] | 2.91 ± 0.073
PSFTDEQWITIESQMRD [PRP8] | 2.6 ± 0.053
PSFTFGGSTTNNTTTTS [YOR098C/NUP1] | 3.36 ± 0.073
PSHEKLKESYSQKHNGR [CDC53] | 3.04 ± 0.08

— the supplement of paper PMC9732359
